Assay results published in the array DNA melting data of Ke et al..

Assay: melting temperature; UV melt of duplexes

Substance: GCCCCTCCACTGGCCGACGGCAGCAGGCTC+GAGCCTGCTGCCGTCGGCCAGTGGAGGGGC ((((((((((((((((((((((((((((((+))))))))))))))))))))))))))))))
- Tm (sodium 0.07 M, strand 2 µM): 76.3 °C
- Tm (sodium 0.12 M, strand 2 µM): 79.8 °C
- Tm (sodium 0.22 M, strand 2 µM): 83.6 °C
- Tm (sodium 0.62 M, strand 2 µM): 87.1 °C
- Tm (sodium 1.02 M, strand 2 µM): 87.7 °C

Substance: GTCATACGACTGAGTGCAACATTGTTCAAA+TTTGAACAATGTTGCACTCAGTCGTATGAC ((((((((((((((((((((((((((((((+))))))))))))))))))))))))))))))
- Tm (sodium 0.07 M, strand 2 µM): 62.7 °C
- Tm (sodium 0.12 M, strand 2 µM): 66.8 °C
- Tm (sodium 0.22 M, strand 2 µM): 70.8 °C
- Tm (sodium 0.62 M, strand 2 µM): 75.9 °C
- Tm (sodium 1.02 M, strand 2 µM): 76.9 °C

Substance: TCCACACGGTAGTAAAATTAGGCTT+AAGCCTAATTTTACTACCGTGTGGA (((((((((((((((((((((((((+)))))))))))))))))))))))))
- Tm (sodium 0.07 M, strand 2 µM): 59.3 °C
- Tm (sodium 0.12 M, strand 2 µM): 63.1 °C
- Tm (sodium 0.22 M, strand 2 µM): 67.3 °C
- Tm (sodium 0.62 M, strand 2 µM): 71.8 °C
- Tm (sodium 1.02 M, strand 2 µM): 73.8 °C

Substance: AACGCGCGTAGAGTGGCCGCAA+TTGCGGCCACTCTACGCGCGTT ((((((((((((((((((((((+))))))))))))))))))))))
- Tm (sodium 0.12 M, strand 6 µM): 77.3 °C

Substance: ATATATATGAATTCATATATAT+ATATATATGAATTCATATATAT ((((((((((((((((((((((+))))))))))))))))))))))
- Tm (sodium 0.12 M, strand 6 µM): 48.9 °C

Substance: TGGATTCTACTCAACCTTAGTCTGG+CCAGACTAAGGTTGAGTAGAATCCA (((((((((((((((((((((((((+)))))))))))))))))))))))))
- Tm (sodium 0.07 M, strand 2 µM): 59 °C
- Tm (sodium 0.12 M, strand 2 µM): 63.1 °C
- Tm (sodium 0.22 M, strand 2 µM): 67.1 °C
- Tm (sodium 0.62 M, strand 2 µM): 71.3 °C
- Tm (sodium 1.02 M, strand 2 µM): 73.6 °C

Substance: CAGCCTCGTTCGCACAGCCC+GGGCTGTGCGAACGAGGCTG ((((((((((((((((((((+))))))))))))))))))))
- Tm (sodium 0.07 M, strand 2 µM): 67.2 °C
- Tm (sodium 0.12 M, strand 2 µM): 70.7 °C
- Tm (sodium 0.22 M, strand 2 µM): 74 °C
- Tm (sodium 0.62 M, strand 2 µM): 77.7 °C
- Tm (sodium 1.02 M, strand 2 µM): 78.1 °C

Substance: AATATATATAGAGTGGCCGCAA+TTGCGGCCACTCTATATATATT ((((((((((((((((((((((+))))))))))))))))))))))
- Tm (sodium 0.12 M, strand 6 µM): 65.2 °C

Substance: CTTCAACGGATCAGGTAGGACTGTGGTGGG+CCCACCACAGTCCTACCTGATCCGTTGAAG ((((((((((((((((((((((((((((((+))))))))))))))))))))))))))))))
- Tm (sodium 0.07 M, strand 2 µM): 67.6 °C
- Tm (sodium 0.12 M, strand 2 µM): 71.7 °C
- Tm (sodium 0.22 M, strand 2 µM): 74.7 °C
- Tm (sodium 0.62 M, strand 2 µM): 78.8 °C
- Tm (sodium 1.02 M, strand 2 µM): 80.1 °C

Substance: AGCTGCAGTGGATGTGAGAA+TTCTCACATCCACTGCAGCT ((((((((((((((((((((+))))))))))))))))))))
- Tm (sodium 0.07 M, strand 2 µM): 59.7 °C
- Tm (sodium 0.12 M, strand 2 µM): 63.5 °C
- Tm (sodium 0.22 M, strand 2 µM): 67.6 °C
- Tm (sodium 0.62 M, strand 2 µM): 71.3 °C
- Tm (sodium 1.02 M, strand 2 µM): 73.1 °C

Substance: CCGTGCGGTGTGTACGTTTTATTCATCATA+TATGATGAATAAAACGTACACACCGCACGG ((((((((((((((((((((((((((((((+))))))))))))))))))))))))))))))
- Tm (sodium 0.07 M, strand 2 µM): 63.9 °C
- Tm (sodium 0.12 M, strand 2 µM): 68.3 °C
- Tm (sodium 0.22 M, strand 2 µM): 71.8 °C
- Tm (sodium 0.62 M, strand 2 µM): 76.5 °C
- Tm (sodium 1.02 M, strand 2 µM): 77.6 °C

Substance: TAGTATATCGCAGCATCATACAGGC+GCCTGTATGATGCTGCGATATACTA (((((((((((((((((((((((((+)))))))))))))))))))))))))
- Tm (sodium 0.07 M, strand 2 µM): 61.2 °C
- Tm (sodium 0.12 M, strand 2 µM): 64.7 °C
- Tm (sodium 0.22 M, strand 2 µM): 69.1 °C
- Tm (sodium 0.62 M, strand 2 µM): 72.8 °C
- Tm (sodium 1.02 M, strand 2 µM): 75 °C

Substance: CCATCATTGTGTCTACCTCA+TGAGGTAGACACAATGATGG ((((((((((((((((((((+))))))))))))))))))))
- Tm (sodium 0.07 M, strand 2 µM): 55.6 °C
- Tm (sodium 0.12 M, strand 2 µM): 59.5 °C
- Tm (sodium 0.22 M, strand 2 µM): 63.1 °C
- Tm (sodium 0.62 M, strand 2 µM): 67.3 °C
- Tm (sodium 1.02 M, strand 2 µM): 68.5 °C

Substance: AACGCGTGAATTCTGGCCAA+TTGGCCAGAATTCACGCGTT ((((((((((((((((((((+))))))))))))))))))))
- Tm (sodium 0.12 M, strand 6 µM): 66.6 °C

Substance: AAATATAGCTATATTT+AAATATAGCTATATTT ((((((((((((((((+))))))))))))))))
- Tm (sodium 0.12 M, strand 5 µM): 40.4 °C

Substance: GCGGATTAGGATCCATATCGCG+CGCGATATGGATCCTAATCCGC ((((((((((((((((((((((+))))))))))))))))))))))
- Tm (sodium 0.12 M, strand 4 µM): 65.4 °C

Substance: TAACCATACTGAATACCTTTTGACG+CGTCAAAAGGTATTCAGTATGGTTA (((((((((((((((((((((((((+)))))))))))))))))))))))))
- Tm (sodium 0.07 M, strand 2 µM): 56.5 °C
- Tm (sodium 0.12 M, strand 2 µM): 60.2 °C
- Tm (sodium 0.22 M, strand 2 µM): 64.3 °C
- Tm (sodium 0.62 M, strand 2 µM): 68.9 °C
- Tm (sodium 1.02 M, strand 2 µM): 71.3 °C

Substance: AACGCCGGTAGAGTGCGCGCAA+TTGCGCGCACTCTACCGGCGTT ((((((((((((((((((((((+))))))))))))))))))))))
- Tm (sodium 0.12 M, strand 5.9 µM): 79.1 °C

Substance: AATATATAGCTATCGAT+ATCGATAGCTATATATT (((((((((((((((((+)))))))))))))))))
- Tm (sodium 0.12 M, strand 4 µM): 49.7 °C

Substance: GTGGTGGGCCGTGCGCTCTG+CAGAGCGCACGGCCCACCAC ((((((((((((((((((((+))))))))))))))))))))
- Tm (sodium 0.07 M, strand 2 µM): 69.2 °C
- Tm (sodium 0.12 M, strand 2 µM): 72.7 °C
- Tm (sodium 0.22 M, strand 2 µM): 76.2 °C
- Tm (sodium 0.62 M, strand 2 µM): 79.6 °C
- Tm (sodium 1.02 M, strand 2 µM): 81 °C

Substance: ATGCAATGCTACATATTCGC+GCGAATATGTAGCATTGCAT ((((((((((((((((((((+))))))))))))))))))))
- Tm (sodium 0.07 M, strand 2 µM): 55.2 °C
- Tm (sodium 0.12 M, strand 2 µM): 59.5 °C
- Tm (sodium 0.22 M, strand 2 µM): 62.9 °C
- Tm (sodium 0.62 M, strand 2 µM): 67 °C
- Tm (sodium 1.02 M, strand 2 µM): 68.9 °C
